For experiment [1], the target named is T1, C. elegans UNC-13 long isoform residues 1-258 bearing the K49E mutation (C. elegans, UniProt P27715 1-258, K49E).
T1 sequence: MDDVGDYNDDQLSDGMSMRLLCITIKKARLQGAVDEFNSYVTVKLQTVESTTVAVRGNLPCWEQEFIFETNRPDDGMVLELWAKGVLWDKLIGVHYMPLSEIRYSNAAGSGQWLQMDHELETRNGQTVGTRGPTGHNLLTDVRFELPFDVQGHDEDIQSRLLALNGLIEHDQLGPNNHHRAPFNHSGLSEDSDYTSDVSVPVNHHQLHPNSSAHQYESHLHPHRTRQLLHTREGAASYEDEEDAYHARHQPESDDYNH
Put plainly: ITC. (ITC needs no label: the signal is the heat of the interaction.)

Experiment [2] addresses T2, C. elegans UNC-13 long isoform residues 1-258 bearing the K49E mutation (C. elegans, UniProt P27715 1-258, K49E).
T2 construct: UNC-13 long isoform, C. elegans, residues 1-258 with K49E; expressed from pGEX6p1; Residues left by HRV3C cleavage of the pGEX6p1 fusion are not described; also called UNC-13L residues 1-258; UNC-13L C2A domain; source: E. coli Rosetta2 (DE3), purified (glutathione sepharose, HRV3C cleavage on beads, Superdex 75)
T2 sequence (looked up): T1 sequence
The experiment can be described thus: ITC; Nano ITC (TA Instruments), 20 mM HEPES pH 7.5, 150 mM NaCl, 25°C; one site independent binding model; UNC-13L 1-258 K49E at 21 µM, UNC-10 62-121 WT at 140 µM or K77/79E at 116 µM. The conditions noted are these: both partners purified.

One molecule from article PMC6389284, “Heterodimerization of UNC-13/RIM regulates synaptic vesicle release probability but not priming in C. elegans” (eLife, 2019) can be followed below.

B1: C. elegans UNC-10 residues 62-121 WT (domain or fragment, UniProt Q22366 62-121, looked up)
chain: KLVGTQDDAICQICQKTKFADGIGHKCFYCQLRSCARCGGRAQSKNKAIWACSLCQKRQQ
notes: expressed from pGEX6p1; also called UNC-10/RIM ZF domain; source: E. coli Rosetta2 (DE3), grown with ZnSO4, purified (glutathione sepharose, HRV3C cleavage on beads, Superdex 75)
B1 came in with a Ka in experiment [1] of 789000 M⁻¹. The molecule also yielded a Kd in experiment [2] of 1.29 µM.

By Kd is commonly meant the equilibrium constant for the complex coming apart. Read a high Kd as weaker binding.
